Test results reported in patent publication US20220220215A1 (CRESCENDO BIOLOGICS, published 2022).
Numbering of substitutions follows the chain as printed. Names and notes keep the numbering of the source. Values belong to the binder of their own block, whether it stands above or below them.

How the values were obtained:
[1] = molecular target: T1, human CD137 expressed on CHO cells (human, UniProt Q07011 18-255); assay: FMAT/Mirrorball on CHO huCD137 cells
T1 construct: also called CHO huCD137; CHO human CD137 cells
Outline: (§1)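 His-tagged VH molecules bound to CHO cells expressing human PD-1 or human CD137, with CHO parent cells as control, in PBS pH 7.4, 0.1% BSA, 0.05% sodium azide. Read by FMAT on Mirrorball (ex 488/640 nm); binding taken as FL2 median fluorescence intensity of FL5-gated events.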

[2] = molecular target: T2, human PD-1 expressed on CHO cells (human, UniProt Q15116 21-288); assay: flow cytometry on CHO huPD1 cells
T2 construct: also called CHO huPD1; CHO human PD1 cells

[3] = molecular target: T1, human CD137 expressed on CHO cells; assay: flow cytometry on CHO huCD137 cells
[4] = molecular target: T2, human PD-1 expressed on CHO cells; assay: FMAT/Mirrorball on CHO huPD1 cells
Outline: as §1

[5] = molecular target: T3, human CD137 expressed on cells (Jurkat human CD137 NF-kB luciferase reporter cells; human CD8+ T cells) (human, UniProt Q07011 24-255); assay: cell-based or functional assay
[6] = molecular target: T4, recombinant Fc-tagged ectodomain of cynomolgus PD1 (Acro Biosystems PD1-C5254) (cynomolgus macaque, UniProt B0LAJ3 25-170); assay: SPR, Biacore 8K, single-cycle kinetics; Fc-tagged ectodomain captured on Protein G chip; 1:1 model
T4 construct: Bought protein; also called Cyno PD1; cynomolgus macaque PD1; not shown: Fc tag and any linker to it
Method: (§2) Binding of Humabody® VH constructs was measured using a single-cycle kinetics method using the BIAcore 8K instrument with 90 second sample injections with a sample concentration range of low nanomolar to high nanomolar. […] The Protein G sensor surface was regenerated with a 20 second injection of 10 mM Glycine buffer, pH 1.5 (GE Healthcare BR100354). Data were analysed using a 1:1 binding model in Biacore Insight Evaluation software, including Humabody® VH constructs with two PD-1 arms.

[7] = molecular target: T5, recombinant Fc-tagged ectodomain of human CD137 (Acro Biosystems 41B-H5258) (human, UniProt Q07011 24-186); assay: as above
T5 construct: Bought protein; not shown: Fc tag
Method: as §2

[8] = molecular target: T6, recombinant Fc-tagged ectodomain of human PD1 (Acro Biosystems PD1-H5257) (human, UniProt Q15116 25-170); assay: as above
T6 construct: Bought protein; not shown: Fc tag
Method: as §2

[9] = molecular target: T7, recombinant Fc-tagged ectodomain of cynomolgus CD137 (R&D S9324-4b) (cynomolgus macaque, UniProt A9YYE7 24-186); assay: as above
T7 construct: Bought protein; also called Cyno CD137; cynomolgus macaque CD137; not shown: Fc tag and any linker to it
Method: as §2

[10] = molecular target: T3, human CD137 expressed on cells (Jurkat …); assay: cell-based or functional assay; remark: listed apart in the source
[11] = molecular target: T3, human CD137 expressed on cells (Jurkat …); assay: cell-based or functional assay; remark: listed apart in the source
[12] = molecular target: T6, recombinant Fc-tagged ectodomain of …; assay: SPR, Biacore 8K, single-cycle kinetics; Fc-tagged ectodomain captured on Protein G chip; 1:1 model (construct with two PD-1 arms)
Method: as §2

B2: TPP-799 PSMA-6GS-CD137-6GS-HSA (bispecific antibody)
chain: EVQLVESGGGVVQPGRSLRLSCAASGFSFSGYGMHWVRQAPGKGLEWVAYISYDGSNKYYADSVKGRFTISRDNSKNTLYLQMNSLRAEDTAVYYCAKDPAWGLRLGESSSYDFDIWGQGTMVTVSSGGGGSGGGGSGGGGSGGGGSGGGGSGGGGSEVQLVESGGGVVQPGGSLRLSCAASGFTFSNYGMHWVRQAPGKGLEWVAVISNDGNTKTYADSVKGRFTISRDNSKNTLYLQMNSLRAEDTAVYYCAQDETTTVTASYYFDYWGQGTLVTVSSGGGGSGGGGSGGGGSGGGGSGGGGSGGGGSEVQLVESGGGLVQPGRSLRLSCAASGFTFHHYAMHWVRQAPGKGLEWVSGISWNGNKITYADSVKGRFTISRDNAKNSLYLQMNSLRAEDTALYYCVRDSSLFIVGAPTFEHWGRGTLVTVSS
Jurkat-CD137/CHO-PSMA Reporter Assay EC50 [5]: 5.6 nM

B3: TPP-805 PSMA-6GS-CD137-6-6GS-HSA (bispecific antibody)
chain: B2 chain with V168L, T235M, A245T
Jurkat-CD137/CHO-PSMA Reporter Assay EC50 [5]: 16 nM

B4: TPP-806 PSMA-6GS-CD137-6GS-HSA (bispecific antibody)
chain: B2 chain with V168L, A245T
Jurkat-CD137/CHO-PSMA Reporter Assay EC50 [5]: 9.3 nM

B7: TPP-1027: CD137A -6GS-HSA2-6GS-PD138G7(G109D)-His (bispecific antibody)
chain: EVQLVESGGGLVQPGGSLRLSCAASGFTLSNYWMNWVRQAPGKGLEWVANINQDGSERYYVDSVKGRFTISRDNAKNSLYLQMNSLRAEDTAVYYCARGGEGYGVDHYGLDVSGQGTTVTVSSGGGGSGGGGSGGGGSGGGGSGGGGSGGGGSEVQLVESGGGLVKPGGSLRLSCAASGFTFSNYNMNWVRQAPGKGLEWVSSISSAGTHIYYADSVKGRFTISRDNAKNSLYLQMNSLRAEDTAVYYCARDPHSTGWYKDFDYWGQGTLVTVSSGGGGSGGGGSGGGGSGGGGSGGGGSGGGGSEVQLVESGGGVVRPGGSLRLSCAASGFTFDDYAMSWVRQAPGKGLEWVSGITWNGGSTGYADSVKDRFTISRDNAKNSLYLQMNSLRAEDTALYYCVRDKYSYAWSYDDFDIWGQGTMVTVSSAAAHHHHHH
notes: Single-chain VH fusion (CD137 VH, HSA VH, PD-1 VH), His tag
EC50 [1]: 0.0672 nM
EC50 [2]: 5.01 nM
EC50 [3]: 1.47 nM
EC50 [4]: 0.173 nM

B8: TPP-801 PSMA-6GS-CD137-6GS-HSA (bispecific antibody)
chain: EVQLVESGGGVVQPGRSLRLSCAASGFSFSGYGMHWVRQAPGKGLEWVAYISYDGSNKYYADSVKGRFTISRDNSKNTLYLQMNSLRAEDTAVYYCAKDPAWGLRLGESSSYDFDIWGQGTMVTVSSGGGGSGGGGSGGGGSGGGGSGGGGSGGGGSEVQLVESGGGVVQPGGSLRLSCAASGFTFSNYGMHWVRQAPGKGLEWVAVISNDGNTKTYADSVKGRFTISRDNSKNTLYLQMNSLRAEDTAVYYCAQDETTTVTASYYFDYWGQGTLVTVSSGGGGSGGGGSGGGGSGGGGSGGGGSGGGGSEVQLVESGGGLVKPGGSLRLSCAASGFTFSNYNMNWVRQAPGKGLEWVSSISSAGTHIYYADSVKGRFTISRDNAKNSLYLQMNSLRAEDTAVYYCARDPHSTGWYKDFDYWGQGTLVTVSS
Jurkat-CD137/CHO-PSMA Reporter Assay EC50 [5]: 1.3 nM

Further lines, results first:

EC50 [1]: 0.151 nM
EC50 [2]: 22.7 nM
EC50 [3]: 1.99 nM
EC50 [4]: 0.583 nM
B1: TPP-1028: CD137A -6GS-HSA3-6GS-PD138G7(G109D)-His (bispecific antibody)
chain: EVQLVESGGGLVQPGGSLRLSCAASGFTLSNYWMNWVRQAPGKGLEWVANINQDGSERYYVDSVKGRFTISRDNAKNSLYLQMNSLRAEDTAVYYCARGGEGYGVDHYGLDVSGQGTTVTVSSGGGGSGGGGSGGGGSGGGGSGGGGSGGGGSEVQLLESGGGLVKPGGSLRLSCAASGFTVSSYTMNWVRQAPGKGLEWVSSISSSGRYIYYADSVKGRFTISRDNAKNSLYLQMNSLRAEDTAVYYCARDPRMVGNPHEFDIWGQGTMVTVSSGGGGSGGGGSGGGGSGGGGSGGGGSGGGGSEVQLVESGGGVVRPGGSLRLSCAASGFTFDDYAMSWVRQAPGKGLEWVSGITWNGGSTGYADSVKDRFTISRDNAKNSLYLQMNSLRAEDTALYYCVRDKYSYAWSYDDFDIWGQGTMVTVSSAAAHHHHHH
notes: as for B7

Kd [6]: 20.5 nM
koff [6]: 0.00464 s⁻¹
kon [6]: 227000 M⁻¹ s⁻¹
Kd [7]: 0.541 nM
koff [7]: 0.000187 s⁻¹
kon [7]: 345000 M⁻¹ s⁻¹
Kd [8]: 8.38 nM
koff [8]: 0.00202 s⁻¹
kon [8]: 241000 M⁻¹ s⁻¹
Kd [9]: 0.842 nM
koff [9]: 0.000267 s⁻¹
kon [9]: 317000 M⁻¹ s⁻¹
Jurkat-CD137/CHO-PD-1 Reporter Assay EC50 [10]: 72.9 pM
CD8+ T-cell activation assay - IL-2 release, EC50 [11]: 176 pM
B5: TPP-1246 CD137A-6GS-HSA2-6GS-PD138G7(G109D) (bispecific antibody)
chain: EVQLVESGGGLVQPGGSLRLSCAASGFTLSNYWMNWVRQAPGKGLEWVANINQDGSERYYVDSVKGRFTISRDNAKNSLYLQMNSLRAEDTAVYYCARGGEGYGVDHYGLDVSGQGTTVTVSSGGGGSGGGGSGGGGSGGGGSGGGGSGGGGSEVQLVESGGGLVKPGGSLRLSCAASGFTFSNYNMNWVRQAPGKGLEWVSSISSAGTHIYYADSVKGRFTISRDNAKNSLYLQMNSLRAEDTAVYYCARDPHSTGWYKDFDYWGQGTLVTVSSGGGGSGGGGSGGGGSGGGGSGGGGSGGGGSEVQLVESGGGVVRPGGSLRLSCAASGFTFDDYAMSWVRQAPGKGLEWVSGITWNGGSTGYADSVKDRFTISRDNAKNSLYLQMNSLRAEDTALYYCVRDKYSYAWSYDDFDIWGQGTMVTVSS

Kd [7]: 0.62 nM
koff [7]: 0.00011 s⁻¹
kon [7]: 500000 M⁻¹ s⁻¹
Jurkat-CD137/CHO-PD-1 Reporter Assay EC50 [10]: 4.66 pM
Kd [12]: 0.0951 nM
koff [12]: 5.02e-05 s⁻¹
kon [12]: 527000 M⁻¹ s⁻¹
B6: TPP-1438 CD137A-6GS-HSA2-6GS-PD138G7(G109D)-6GS-PD138G7(G109D) (bispecific antibody)
chain: EVQLVESGGGLVQPGGSLRLSCAASGFTLSNYWMNWVRQAPGKGLEWVANINQDGSERYYVDSVKGRFTISRDNAKNSLYLQMNSLRAEDTAVYYCARGGEGYGVDHYGLDVSGQGTTVTVSSGGGGSGGGGSGGGGSGGGGSGGGGSGGGGSEVQLVESGGGLVKPGGSLRLSCAASGFTFSNYNMNWVRQAPGKGLEWVSSISSAGTHIYYADSVKGRFTISRDNAKNSLYLQMNSLRAEDTAVYYCARDPHSTGWYKDFDYWGQGTLVTVSSGGGGSGGGGSGGGGSGGGGSGGGGSGGGGSEVQLVESGGGVVRPGGSLRLSCAASGFTFDDYAMSWVRQAPGKGLEWVSGITWNGGSTGYADSVKDRFTISRDNAKNSLYLQMNSLRAEDTALYYCVRDKYSYAWSYDDFDIWGQGTMVTVSSGGGGSGGGGSGGGGSGGGGSGGGGSGGGGSEVQLVESGGGVVRPGGSLRLSCAASGFTFDDYAMSWVRQAPGKGLEWVSGITWNGGSTGYADSVKDRFTISRDNAKNSLYLQMNSLRAEDTALYYCVRDKYSYAWSYDDFDIWGQGTMVTVSS
notes: Single-chain fusion of four VH single domains, two PD-1 arms

Kd [7]: 0.506 nM
koff [7]: 0.000107 s⁻¹
kon [7]: 800000 M⁻¹ s⁻¹
Jurkat-CD137/CHO-PD-1 Reporter Assay EC50 [10]: 14.5 pM
Kd [12]: 0.0683 nM
koff [12]: 5.12e-05 s⁻¹
kon [12]: 750000 M⁻¹ s⁻¹
B9: TPP-1439 PD138G7(G109D)-6GS-PD138G7(G109D)-6GS-CD137A-7-6GS-HSA2 (bispecific antibody)
chain: EVQLVESGGGVVRPGGSLRLSCAASGFTFDDYAMSWVRQAPGKGLEWVSGITWNGGSTGYADSVKDRFTISRDNAKNSLYLQMNSLRAEDTALYYCVRDKYSYAWSYDDFDIWGQGTMVTVSSGGGGSGGGGSGGGGSGGGGSGGGGSGGGGSEVQLVESGGGVVRPGGSLRLSCAASGFTFDDYAMSWVRQAPGKGLEWVSGITWNGGSTGYADSVKDRFTISRDNAKNSLYLQMNSLRAEDTALYYCVRDKYSYAWSYDDFDIWGQGTMVTVSSGGGGSGGGGSGGGGSGGGGSGGGGSGGGGSEVQLVESGGGLVQPGGSLRLSCAASGFTLSNYWMNWVRQAPGKGLEWVANINQDGSERYYVDSVKGRFTISRDNAKNSLYLQMNSLRAEDTAVYYCARGGEGYGVDHYGLDVSGQGTTVTVSSGGGGSGGGGSGGGGSGGGGSGGGGSGGGGSEVQLVESGGGLVKPGGSLRLSCAASGFTFSNYNMNWVRQAPGKGLEWVSSISSAGTHIYYADSVKGRFTISRDNAKNSLYLQMNSLRAEDTAVYYCARDPHSTGWYKDFDYWGQGTLVTVSS
notes: as for B6
